Experimental data published in patent EP4644419A1 (Hangzhou Zhongmeihuadong Pharmaceutical Co., Ltd., dated 2025).
Substitutions are numbered along the chain they refer to.

T1: human CD112R on GS-J2C/CD112R effector cells (human, UniProt Q6DKI7 1-326)
T1 sequence (looked up): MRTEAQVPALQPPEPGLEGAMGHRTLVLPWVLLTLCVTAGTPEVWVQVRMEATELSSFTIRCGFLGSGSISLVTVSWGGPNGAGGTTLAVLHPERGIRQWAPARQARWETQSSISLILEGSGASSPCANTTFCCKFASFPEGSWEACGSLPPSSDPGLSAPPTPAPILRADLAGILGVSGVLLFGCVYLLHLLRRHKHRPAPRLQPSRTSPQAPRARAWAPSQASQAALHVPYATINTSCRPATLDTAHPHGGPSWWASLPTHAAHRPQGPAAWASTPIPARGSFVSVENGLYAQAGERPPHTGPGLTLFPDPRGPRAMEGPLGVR

T2: human CD112R on antigen-specific CD8+ T cells (human, UniProt Q6DKI7 1-326)
T2 sequence (looked up): T1 sequence (looked up)

T3: human CD112R antigen protein huCD112R-His (Acro Biosysterm, PVG-H52H4) (human, UniProt Q6DKI7 41-171)
T3 construct: purchased; also called human antigen protein; not shown: His tag
T3 sequence (looked up): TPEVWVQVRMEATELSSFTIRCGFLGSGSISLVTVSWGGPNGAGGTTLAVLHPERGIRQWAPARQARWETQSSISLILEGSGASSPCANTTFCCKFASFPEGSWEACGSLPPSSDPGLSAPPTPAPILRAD

T4: monkey antigen protein (monkey CD112R, Uniprot ID: A0A2K5WVV8) (monkey, UniProt A0A2K5WVV8 41-171)
T4 sequence: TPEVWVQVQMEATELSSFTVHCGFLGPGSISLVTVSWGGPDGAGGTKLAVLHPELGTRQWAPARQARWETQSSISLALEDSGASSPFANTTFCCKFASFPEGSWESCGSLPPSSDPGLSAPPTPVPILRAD

B1: C14 (antibody, human IgG1, kappa, V domains shown)
VH: QVQLQQPGAELVRPGTSVKLSCKASGNTFTSYWMHWVKQRPGQGHEWIGVIDASDSNTKYNQKFKGKATLTVDTSSSTAYMQLSSLTSEDSAVYYCARYYSGSSYGLDYWGQGTTLTVSS
VL: DIQMTQTASSLSASLGDRVTISCRASQDISNYLNWYQQKPDGTVKLLIYYTSRLHSGVPSRFSGSGSGTDFSLTITHLEQEDIASYFCQQGNMFPPTFGGGTKLEIKR
B2: C24 (antibody, human IgG1, kappa, V domains shown)
VH: QVQLKQSGPGLVQPSQNLSITCTVSGFSLTGYGINWVRQSPGKGLEWLGVIWSGGNTEYNAAFRSRLSISKDTSKSQVFLKMNSLQADDTAIYSCARDSTGLYAMDYWGPGTSVTVSS
VL: DLQMTQTTSSLSASLGDRVTISCRTSQDISNFLNWYQQKPDGPLKLLIYYTSRLHSGVPSRFSGSGSGTDYSLTISNLEQEDIATYFCQQGYMLPPTFGGGTKLEIKR
B3: C1 (antibody, human IgG1, kappa, V domains shown)
VH: QVHLQQSGPELVKPGASLKISCKASGYTFTDYYLNWVKQRPGQGLEWIGWIFPGSESTFYNEKFKGKATLTVDKSSSTAYMLLNSLTSEDSAVYFCTRDGGLRGPFDYWGQGTTLTVSS
VL: DIQLTQSPSSLSASLGGKVTITCKASQDINKYIAWCQHKPGKGPRLLIHYTSTLHPGIPSRFSGSGSGRDYSFSISNLEPEDSATYYCLQYDYLLTFGGGTKLEIKR
B4: C3 (antibody, human IgG1, kappa, V domains shown)
VH: QVQLQQSGPELVKPGASVKISCRSSGYTFTDYYINWVKQRPGQGLEWIGWIFPGSDYTYYNEKFKGKATLTVDKSSTTAYMLLSSLTSEDSAVYFCARDGGLRGPFDYWGQGTTLTVSS
VL: B3 VL with L4M, C36Y, H38Q, H55Q, D70N, Y71S, S83I, Y93N, L95H
B5: C13 (antibody, human IgG1, kappa, V domains shown)
VH: EVQLQQSGPELVKPGASVKISCKASGYTFTDYFMNWVKQSHGKSLEWIGDINPNNGSPNYNQKFKGRATLTVDKSSSTAYMELRSLTSEDSAVYYCASGYFDVWGTGTTVTVSS
VL: DIVMTQSPSSLSVSAGEKVTMSCKSSQSLLNSGTQKNYLAWYQQKPGQPPKLLIYGASTRESGVPDRFTGSGSGTDFTLTISSVQAEDLAVYYCQNDHSYPWTFGGGTKLEIKR
B6: C41 (antibody, human IgG1, kappa, V domains shown)
VH: EVQLQQSGPELVKPGASVKISCKASGNTFTDYYINWVKQSHGKSLEWIGDIEPNNGGTNYNQKFKGKATLTVDKSSSTAYMELRSLTSEDSAIYYCATLYFDYWGQGTTLTVSS
VL: B5 VL with T34N, W102F, G106S
B7: C7 (antibody, human IgG1, kappa, V domains shown)
VH: B6 VH with N27Y, F29L, I34M, E52N, Y60F, V72I, A79T, I93V, T98S, Y100F
VL: B5 VL with T34N, V91L, D97A, Y100S, W102Y
B8: C4 (antibody, human IgG1, kappa, V domains shown)
VH: B5 VH with N52I, G56D, R67K, S77N
VL: B5 VL with T34N, Y38F, A57T
B9: C11 (antibody, human IgG1, kappa, V domains shown)
VH: B5 VH with K38R, N52H, R67K, D73G, S98T
VL: B5 VL with T34N
B10: C12 (antibody, human IgG1, kappa, V domains shown)
VH: EVQLVASGGGLVKPGGSLKLSCAASGFTFSDYYMYWVRQTPEKRLEWVATISDGGGYTYYPDSVKGRFTISRDNDRNSLYLQMSSLKSEDTAMYYCGREDLWGQGTSVTVSS
VL: DIQMTQSPSSLSASLGERVSLTCRASQDIGSSLNWLQQEPDGTVKRLIYATSRLDSGVPKRFSGSRSGSDYSLTISSLESEDFVDYYCLQYASFPYTFGGGTKLEIKR
B11: C8 (antibody, human IgG1, kappa, V domains shown)
VH: B10 VH with Y35F, T58I, M93I, L101F
VL: B10 VL with S31R, T43S, K45R
B12: C20 (antibody, human IgG1, kappa, V domains shown)
VH: B10 VH with A6E, Y32S, Y35C, G54A, S78N, S85G, M93V
VL: B10 VL with S31R, V44I, F94S
B13: C19 (antibody, human IgG1, kappa, V domains shown)
VH: B10 VH with A6E, G54A, D75A, Y95F
VL: B10 VL with S31Y, T43S, K45R
B14: C18 (antibody, human IgG1, kappa, V domains shown)
VH: B10 VH with A6E, Y57F, T58I, Q82L, Y95F
VL: B10 VL with S31R, E39G, K60T

The binders below were run against T1, human CD112R on GS-J2C/CD112R effector … (assay: cell-based or functional assay).

In order of rising “EC50 (Blocking effects of the antibodies, reporter gene method)” value:
1. B5  0.019 µg/mL
2. B9  0.021 µg/mL
3. B6  0.024 µg/mL
4. B8  0.024 µg/mL
5. B10  0.024 µg/mL
6. B12  0.025 µg/mL
7. B11  0.026 µg/mL
8. B7  0.031 µg/mL
9. B13  0.033 µg/mL
10. B14  0.034 µg/mL
11. B4  0.04 µg/mL
12. B3  0.045 µg/mL
13. B2  0.05 µg/mL
14. B1  0.052 µg/mL

These binders were tested against T2, human CD112R on antigen-specific CD8+ T … (assay: cell-based or functional assay).

In order of falling “IFN-γ(pg/ml) at 0.5µg/ml antibody” value:
1. B7  818 pg/mL
2. B14  748 pg/mL
3. B11  722 pg/mL
4. B12  708 pg/mL
5. B9  676 pg/mL
6. B8  663 pg/mL
7. B5  624 pg/mL
8. B1  619 pg/mL
9. B2  611 pg/mL
10. B10  608 pg/mL
11. B6  573 pg/mL
12. B13  571 pg/mL
13. B3  543 pg/mL
14. B4  535 pg/mL

In order of rising “IFN-γ(pg/ml) at 5µg/ml antibody” value:
1. B4  633 pg/mL
2. B3  641 pg/mL
3. B2  656 pg/mL
4. B5  658 pg/mL
5. B1  674 pg/mL
6. B10  678 pg/mL
7. B8  740 pg/mL
8. B13  744 pg/mL
9. B9  747 pg/mL
10. B6  751 pg/mL
11. B11  783 pg/mL
12. B14  802 pg/mL
13. B12  835 pg/mL
14. B7  837 pg/mL

In order of falling “IFN-γ(pg/ml) at 50µg/ml antibody” value:
1. B8  875 pg/mL
2. B13  829 pg/mL
3. B10  824 pg/mL
4. B11  819 pg/mL
5. B5  767 pg/mL
6. B1  759 pg/mL
7. B3  755 pg/mL
8. B4  755 pg/mL
9. B2  733 pg/mL
10. B6  659 pg/mL
11. B9  617 pg/mL

These binders were tested against T3, human CD112R antigen protein … (assay: ELISA, huCD112R-His coated on plate).

In order of falling EC50:
1. B12  2270 pM
2. B10  155 pM
3. B3  75 pM
4. B14  69 pM
5. B5  65 pM
6. B9  56 pM
7. B1  52 pM
8. B2  48 pM
9. B4  46 pM
10. B11  46 pM
11. B13  43 pM
12. B7  34 pM
13. B6  33 pM
14. B8  32 pM

These binders were tested against T4, monkey antigen protein (monkey CD112R, …) (assay: ELISA, monkey antigen protein (as Example 6.1)).

In order of falling EC50:
1. B12  8360 pM
2. B10  768 pM
3. B2  169 pM
4. B4  118 pM
5. B3  116 pM
6. B7  80 pM
7. B9  79 pM
8. B14  69 pM
9. B1  67 pM
10. B5  59 pM
11. B8  59 pM
12. B6  52 pM
13. B11  47 pM
14. B13  34 pM

The binders below were run against T3, human CD112R antigen protein … (assay: SPR (Biacore X100), antibody captured on Protein A chip, huCD112R-His as analyte, 1:1 Langmuir).

In order of rising Kd:
1. B8  14.1 pM
2. B5  21.8 pM
3. B6  22 pM
4. B2  46.7 pM
5. B7  57.6 pM
6. B9  62.2 pM
7. B1  68.7 pM
8. B12  114 pM
9. B4  181 pM
10. B14  206 pM
11. B11  397 pM
12. B13  567 pM
13. B3  905 pM
14. B10  2900 pM
